Data on 10 molecules can be found in patent publication US20150045540A1 (published 2015).

For assay [1], the target named is T1, Placenta Growth Factor (PlGF), human (human, UniProt P49763 21-149).
T1 chain: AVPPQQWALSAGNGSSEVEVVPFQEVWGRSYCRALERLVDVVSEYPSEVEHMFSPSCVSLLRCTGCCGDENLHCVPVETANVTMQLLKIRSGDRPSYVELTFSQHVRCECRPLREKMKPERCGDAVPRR
Briefly: ELISA. A general note: In an ELISA, binding on a coated surface is turned into a signal by an enzyme label.

The target of assay [2] is Hepatocyte Growth Factor (HGF), human (human, UniProt P14210 32-728). Briefly: ELISA.
Chain of Hepatocyte Growth Factor (HGF), human (P14210 32-728): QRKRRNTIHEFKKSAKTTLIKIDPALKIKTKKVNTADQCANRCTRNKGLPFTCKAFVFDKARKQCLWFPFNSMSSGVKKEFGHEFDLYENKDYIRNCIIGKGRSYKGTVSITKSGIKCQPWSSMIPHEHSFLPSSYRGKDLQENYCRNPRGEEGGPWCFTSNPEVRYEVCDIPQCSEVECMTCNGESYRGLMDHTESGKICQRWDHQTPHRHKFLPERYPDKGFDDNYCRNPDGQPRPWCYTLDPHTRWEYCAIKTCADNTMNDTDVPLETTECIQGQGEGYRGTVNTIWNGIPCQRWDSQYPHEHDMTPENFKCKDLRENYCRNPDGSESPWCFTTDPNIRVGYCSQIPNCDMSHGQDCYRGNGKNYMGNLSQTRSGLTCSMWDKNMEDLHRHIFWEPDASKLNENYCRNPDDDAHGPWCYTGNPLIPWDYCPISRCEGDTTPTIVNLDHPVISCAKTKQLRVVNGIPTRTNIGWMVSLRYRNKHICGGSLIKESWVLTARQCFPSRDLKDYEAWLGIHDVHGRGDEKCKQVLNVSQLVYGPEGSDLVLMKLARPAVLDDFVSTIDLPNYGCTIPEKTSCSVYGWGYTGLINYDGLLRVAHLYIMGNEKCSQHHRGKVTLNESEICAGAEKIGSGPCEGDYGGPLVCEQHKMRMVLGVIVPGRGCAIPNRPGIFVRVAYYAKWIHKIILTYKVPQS

B1: HC 7/SLC 9 (antibody)
chain 1: GQGTLVTVSSASTKGPSQPVLHQPPAMSSALGTTIRLTCTLRNDHDIGVYSVYWYQQRPGHPPRFLLRYFSQSDKSQGPQVPPRFSGSKDVARNRGYLSISELQPEDEAMYYCAMGARSRCWPRGFQSKHNSVTHVFGSGTQLTVLSQPKATPSVTLFPPSSEELQANKATLVCLMNDFYPGILTVTWKADGTPITQGVEMTTPSKQSNNKYAASSYLSLTPEQWRSRRSYSCQVMHEGSTVEKTVAPAECS
chain 2: MSWAPVLLMLFVYCTGCGPQPVLHQPPAMSSALGTTIRLTCTLRNDHDIGVYSVYWYQQRPGHPPRFLLRYFSQSDKSQGPQVPPRFSGSKDVARNRGYLSISVTHVFGSGTQLTVLSQPKATPSVQVQLVQ
Regarding B1, the EC50 in assay [1] was found to be 0.057 nM; in assay [2], 0.048 nM.

B2: HC 7/SLC 4 (antibody)
chain 1: GQGTLVTVSSASTKGPSQPVLHQPPAMSSALGTTIRLTCTLRNDHDIGVYSVYWYQQRPGHPPRFLLRYFSQSDKSQGPQVPPRFSGSKDVARNRGYLSISELQPEDEAMYYCAMGARSRCWPRGFQSKHNSVTHVFGSGTQLTVLSQPKATPSVTLFPPSSEELQANKATLVCLMNDFYPGILTVTWKADGTPITQGVEMTTPSKQSNNKYAASSYLSLTPEQWRSRRSYSCQVMHEGSTVEKTVAPAECS
chain 2: MSWAPVLLMLFVYCTGCGPQPVLHQPPAMSSALGTTIRLTCTLRNDHDIGVYSVYWYQQRPGHPPRFLLRYFSQSDKSQGPQVPPRFSGSKDVARNRGYLSISVTHVFGSGTQLTVLSQPKQVQLVQ
In the case of B2, the EC50 in assay [1] came to 0.204 nM; in assay [2], 0.065 nM.

B3: HC 7/SLC 5 (antibody)
chain 1: GQGTLVTVSSASTKGPSQPVLHQPPAMSSALGTTIRLTCTLRNDHDIGVYSVYWYQQRPGHPPRFLLRYFSQSDKSQGPQVPPRFSGSKDVARNRGYLSISELQPEDEAMYYCAMGARSRCWPRGFQSKHNSVTHVFGSGTQLTVLSQPKATPSVTLFPPSSEELQANKATLVCLMNDFYPGILTVTWKADGTPITQGVEMTTPSKQSNNKYAASSYLSLTPEQWRSRRSYSCQVMHEGSTVEKTVAPAECS
chain 2: MSWAPVLLMLFVYCTGCGPQPVLHQPPAMSSALGTTIRLTCTLRNDHDIGVYSVYWYQQRPGHPPRFLLRYFSQSDKSQGPQVPPRFSGSKDVARNRGYLSISVTHVFGSGTQLTVLSQPKAQVQLVQ
As for B3, the EC50 in assay [1] was determined as 0.283 nM; in assay [2] it was 0.056 nM.

B4: HC 2/SLC 9 (antibody)
chain 1: GQGTLVTVSSASQPVLHQPPAMSSALGTTIRLTCTLRNDHDIGVYSVYWYQQRPGHPPRFLLRYFSQSDKSQGPQVPPRFSGSKDVARNRGYLSISELQPEDEAMYYCAMGARSRCWPRGFQSKHNSVTHVFGSGTQLTVLSQPKATPSVTLFPPSSEELQANKATLVCLMNDFYPGILTVTWKADGTPITQGVEMTTPSKQSNNKYAASSYLSLTPEQWRSRRSYSCQVMHEGSTVEKTVAPAECS
chain 2: MSWAPVLLMLFVYCTGCGPQPVLHQPPAMSSALGTTIRLTCTLRNDHDIGVYSVYWYQQRPGHPPRFLLRYFSQSDKSQGPQVPPRFSGSKDVARNRGYLSISVTHVFGSGTQLTVLSQPKATPSVQVQLVQ
Turning to B4, the EC50 in assay [1] worked out at 0.195 nM; in assay [2] it was 0.063 nM.

B5: HC 5/SLC 15 (antibody)
chain 1: GQGTLVTVSSASTKGQPVLHQPPAMSSALGTTIRLTCTLRNDHDIGVYSVYWYQQRPGHPPRFLLRYFSQSDKSQGPQVPPRFSGSKDVARNRGYLSISELQPEDEAMYYCAMGARSRCWPRGFQSKHNSVTHVFGSGTQLTVLSQPKATPSVTLFPPSSEELQANKATLVCLMNDFYPGILTVTWKADGTPITQGVEMTTPSKQSNNKYAASSYLSLTPEQWRSRRSYSCQVMHEGSTVEKTVAPAECS
chain 2: MSWAPVLLMLFVYCTGCGPQPVLHQPPAMSSALGTTIRLTCTLRNDHDIGVYSVYWYQQRPGHPPRFLLRYFSQSDKSQGPQVPPRFSGSKDVARNRGYLSISVTHVFGSGTQLTVLSQPKATPSVTGGGGSQVQLVQ
As for B5, the EC50 in assay [1] is 0.049 nM; in assay [2], roughly 0.041 nM.

B6: HC 4/SLC 7 (antibody)
chain 1: GQGTLVTVSSASTKQPVLHQPPAMSSALGTTIRLTCTLRNDHDIGVYSVYWYQQRPGHPPRFLLRYFSQSDKSQGPQVPPRFSGSKDVARNRGYLSISELQPEDEAMYYCAMGARSRCWPRGFQSKHNSVTHVFGSGTQLTVLSQPKATPSVTLFPPSSEELQANKATLVCLMNDFYPGILTVTWKADGTPITQGVEMTTPSKQSNNKYAASSYLSLTPEQWRSRRSYSCQVMHEGSTVEKTVAPAECS
chain 2: MSWAPVLLMLFVYCTGCGPQPVLHQPPAMSSALGTTIRLTCTLRNDHDIGVYSVYWYQQRPGHPPRFLLRYFSQSDKSQGPQVPPRFSGSKDVARNRGYLSISVTHVFGSGTQLTVLSQPKATPQVQLVQ
Take B6: the values for the EC50 in assay [1] and in assay [2] were 0.161 nM and 0.059 nM, respectively.

B7: HC 5/SLC 7 (antibody)
chain 1: GQGTLVTVSSASTKGQPVLHQPPAMSSALGTTIRLTCTLRNDHDIGVYSVYWYQQRPGHPPRFLLRYFSQSDKSQGPQVPPRFSGSKDVARNRGYLSISELQPEDEAMYYCAMGARSRCWPRGFQSKHNSVTHVFGSGTQLTVLSQPKATPSVTLFPPSSEELQANKATLVCLMNDFYPGILTVTWKADGTPITQGVEMTTPSKQSNNKYAASSYLSLTPEQWRSRRSYSCQVMHEGSTVEKTVAPAECS
chain 2: MSWAPVLLMLFVYCTGCGPQPVLHQPPAMSSALGTTIRLTCTLRNDHDIGVYSVYWYQQRPGHPPRFLLRYFSQSDKSQGPQVPPRFSGSKDVARNRGYLSISVTHVFGSGTQLTVLSQPKATPQVQLVQ
As to B7, the EC50 in assay [1] was determined as 0.129 nM; in assay [2] it was 0.056 nM.

B8: HC 3/SLC 7 (antibody)
chain 1: GQGTLVTVSSASTQPVLHQPPAMSSALGTTIRLTCTLRNDHDIGVYSVYWYQQRPGHPPRFLLRYFSQSDKSQGPQVPPRFSGSKDVARNRGYLSISELQPEDEAMYYCAMGARSRCWPRGFQSKHNSVTHVFGSGTQLTVLSQPKATPSVTLFPPSSEELQANKATLVCLMNDFYPGILTVTWKADGTPITQGVEMTTPSKQSNNKYAASSYLSLTPEQWRSRRSYSCQVMHEGSTVEKTVAPAECS
chain 2: MSWAPVLLMLFVYCTGCGPQPVLHQPPAMSSALGTTIRLTCTLRNDHDIGVYSVYWYQQRPGHPPRFLLRYFSQSDKSQGPQVPPRFSGSKDVARNRGYLSISVTHVFGSGTQLTVLSQPKATPQVQLVQ
B8: the EC50 stood at 0.159 nM in assay [1] and 0.054 nM in assay [2].

B9: HC 2/SLC 8 (antibody)
chain 1: GQGTLVTVSSASQPVLHQPPAMSSALGTTIRLTCTLRNDHDIGVYSVYWYQQRPGHPPRFLLRYFSQSDKSQGPQVPPRFSGSKDVARNRGYLSISELQPEDEAMYYCAMGARSRCWPRGFQSKHNSVTHVFGSGTQLTVLSQPKATPSVTLFPPSSEELQANKATLVCLMNDFYPGILTVTWKADGTPITQGVEMTTPSKQSNNKYAASSYLSLTPEQWRSRRSYSCQVMHEGSTVEKTVAPAECS
chain 2: MSWAPVLLMLFVYCTGCGPQPVLHQPPAMSSALGTTIRLTCTLRNDHDIGVYSVYWYQQRPGHPPRFLLRYFSQSDKSQGPQVPPRFSGSKDVARNRGYLSISVTHVFGSGTQLTVLSQPKATPSQVQLVQ
As for B9, the EC50 in assay [1] stood at 0.119 nM; in assay [2], 0.046 nM.

B10: HC 6/SLC 8 (antibody)
chain 1: GQGTLVTVSSASTKGPQPVLHQPPAMSSALGTTIRLTCTLRNDHDIGVYSVYWYQQRPGHPPRFLLRYFSQSDKSQGPQVPPRFSGSKDVARNRGYLSISELQPEDEAMYYCAMGARSRCWPRGFQSKHNSVTHVFGSGTQLTVLSQPKATPSVTLFPPSSEELQANKATLVCLMNDFYPGILTVTWKADGTPITQGVEMTTPSKQSNNKYAASSYLSLTPEQWRSRRSYSCQVMHEGSTVEKTVAPAECS
chain 2: MSWAPVLLMLFVYCTGCGPQPVLHQPPAMSSALGTTIRLTCTLRNDHDIGVYSVYWYQQRPGHPPRFLLRYFSQSDKSQGPQVPPRFSGSKDVARNRGYLSISVTHVFGSGTQLTVLSQPKATPSQVQLVQ
Turning to B10, the EC50 in assay [1] was found to be 0.073 nM; in assay [2], 0.059 nM.

As usually defined, the EC50 is the concentration at which the effect is half-maximal. Low values mean a more potent agent, high ones a less potent agent.
